Key:
HEWL-Full2 (hen) [1] = biological target: HEWL-Full2 (hen) (UniProt P00698); assay: BLI, mAb on AHC biosensor, 100 nM antigen, footnote c bounds the value
HEWL-Hel-108 (hen) [2] = biological target: HEWL-Hel-108 (hen) (UniProt P00698); assay: as above
HEWL-Full8 (hen) [3] = biological target: HEWL-Full8 (hen) (UniProt P00698); assay: as above
HEWL-Full4 (hen) [4] = biological target: HEWL-Full4 (hen) (UniProt P00698); assay: as above
HEWL-Full8 (hen) [5] = biological target: HEWL-Full8 (hen) (UniProt P00698); assay: BLI, mAb on AHC biosensor, 100 nM antigen, footnote e bounds the value
HEWL-Full2 (hen) [6] = biological target: HEWL-Full2 (hen) (UniProt P00698); assay: BLI, mAb on AHC biosensor, 100 nM antigen, footnote d bounds the value
HEWL-Full4 (hen) [7] = biological target: HEWL-Full4 (hen) (UniProt P00698); assay: as above
HEWL-Hel-108 (hen) [8] = biological target: HEWL-Hel-108 (hen) (UniProt P00698); assay: BLI, mAb on AHC biosensor, 100 nM antigen
HEWL-Full2 (hen) [9] = biological target: HEWL-Full2 (hen) (UniProt P00698); assay: BLI, mAb on AHC biosensor, 100 nM antigen

Substance | Kd (HEWL-Full2 (hen) [1]) | Kd (HEWL-Hel-108 (hen) [2]) | Kd (HEWL-Full8 (hen) [3]) | Kd (HEWL-Full4 (hen) [4]) | Kd (HEWL-Full8 (hen) [5]) | Kd (HEWL-Full2 (hen) [6]) | Kd (HEWL-Full4 (hen) [7]) | Kd (HEWL-Hel-108 (hen) [8]) | Kd (HEWL-Full2 (hen) [9])
HyHEL-5 (antibody) | 0.14 nM | 0.14 nM | 0.18 nM | 0.15 nM |  |  |  |  | 
D1.3 (antibody) |  |  |  |  | 12 nM | 2.9 nM | 7.9 nM | 5.7 nM | 
HyHEL-10 (antibody) |  |  |  |  |  |  |  | 0.092 nM | 150 nM
